From paper PMC9852238 come the findings set out here.

Test [1] has as its target SARS-CoV-2 Delta Spike (14-1209, S2P) (SARS-CoV-2) (UniProt P0DTC2). Nature of the test: cryo-EM structure.
The target of test [2] is SARS-CoV-2 Omicron BA.1 Spike (14-1209, S2P) (SARS-CoV-2) (UniProt P0DTC2). Description: cryo-EM structure.

In the case of “SARS-CoV-2 Delta Spike (14-1209, S2P) (from UniProt P0DTC2 14-1209) (natural protein)”, the stoichiometry N (usually the number of molecules, sites or subunits per partner or assembly) in test [1] was 3.

In turn, “SARS-CoV-2 Omicron BA.1 Spike (14-1209, S2P) (from UniProt P0DTC2 14-1209) (natural protein)” yielded a stoichiometry N in test [2] of 3.
